Experimental findings from the supplement of paper PMC10567573 are described below.

A short description of the series: protein stability index of a GFP-peptide fusion (GPS, HEK-293T) (PSI 1-6); higher = more stable. The note with it: c terminus: a fixed tail appended.

± gives the standard deviation.
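Note: 24-mer peptide tiles fused after GFP, lentivirally expressed, FACS-sorted into six equal bins by GFP/DsRed ratio, decoded by Illumina sequencing, PSI is the read-weighted mean bin number.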

Take LSALDSKANNLSSLSKKYRQDAKY [SEC22B]: the protein stability index by setting is: (treatment: DMSO) 3.87 ± 0.19; (treatment: MLN4924 1 uM, 8 h) 3.98 ± 0.3.

As to LSETADPFFVLNSDVICDFPFQAM [GMPPB], the protein stability index by setting is: (treatment: DMSO) 2.44 ± 0.26; (treatment: MLN4924 1 uM, 8 h) 2.6 ± 0.35.

Take LSLFIPESPRWLYSQGRLSEAEEA [SLC22A15]: the protein stability index by setting is: (treatment: DMSO) 3.19 ± 0.35; (treatment: MLN4924 1 uM, 8 h) 3.44 ± 0.35.

LSLYQLSLERGTALFAQVQRGALP [RSAD1] came in with a protein stability index (treatment: DMSO) of 2.23 ± 0.36 and a protein stability index (treatment: MLN4924 1 uM, 8 h) of 2.32 ± 0.44.

In the case of LSSVEAYNIRTDSWTTVTSMTTPR [KLHL12], the protein stability index amounted to 2.79 ± 0.31 (treatment: DMSO) and 3.23 ± 0.37 (treatment: MLN4924 1 uM, 8 h).

LTAFICFLVFILNAGLVWFFPWRE [MFSD9]: the protein stability index by setting is: (treatment: DMSO) 2.23 ± 0.42; (treatment: MLN4924 1 uM, 8 h) 2.11 ± 0.51.

Take LTERLKVLEAKMTMLTVIEQPVPP [EMID1]: the protein stability index runs as follows: (treatment: DMSO) 3.09 ± 0.46; (treatment: MLN4924 1 uM, 8 h) 3.32 ± 0.16.

Consider LTLQVYREQADSCREQLDIMNDLS [TRIM14], for which the protein stability index reads like this: (treatment: DMSO) 2.99 ± 0.24; (treatment: MLN4924 1 uM, 8 h) 2.95 ± 0.1.

As to LTVVSFYQVAALQGDLASLRAELQ [TNFSF13B], the protein stability index was 2.77 ± 0.7 (treatment: DMSO) and 2.63 ± 0.68 (treatment: MLN4924 1 uM, 8 h).

Take LVLAIPLLLILVSYVHILSAILQF [OR10K2]: the protein stability index by setting is: (treatment: DMSO) 3.37 ± 0.14; (treatment: MLN4924 1 uM, 8 h) 3.17 ± 0.28.

In the case of LVQVTLLDTVELATYCVRTFALYK [PTPRD], the protein stability index runs as follows: (treatment: DMSO) 3.1 ± 0.49; (treatment: MLN4924 1 uM, 8 h) 2.97 ± 0.81.

Turning to LWEKVMPSRYAAIYNGGVEAVSTL [SLC19A2], the protein stability index by setting is: (treatment: DMSO) 2.19 ± 0.22; (treatment: MLN4924 1 uM, 8 h) 2.07 ± 0.29.

Consider LWFYNTSLKFFLNKPMLADVVFEI [RHOBTB3], for which the protein stability index was 2.82 ± 0.32 (treatment: DMSO) and 3.04 ± 1.1 (treatment: MLN4924 1 uM, 8 h).

With LYELASLKRAFEAANLPALVLKIM [NEK8], the protein stability index runs as follows: (treatment: DMSO) 2.33 ± 0.36; (treatment: MLN4924 1 uM, 8 h) 2.12 ± 0.34.

Turning to LYLVGFLDLFGVSMVVPLLSLHVK [MFSD9], the protein stability index by setting is: (treatment: DMSO) 3.61 ± 0.17; (treatment: MLN4924 1 uM, 8 h) 3.19 ± 0.33.

Consider LYRQHQAQIDQYVGLVTNQLSHIK [RTN2], for which the protein stability index reads like this: (treatment: DMSO) 2.08 ± 0.34; (treatment: MLN4924 1 uM, 8 h) 2.05 ± 0.4.

In the case of LYTPSNEHFGIVPLEAMYMQCPVI [ALG2], the protein stability index was 2.28 ± 0.098 (treatment: DMSO) and 2.39 ± 0.35 (treatment: MLN4924 1 uM, 8 h).

For MAAMFNGNYMEAKSVLIPVYGVSK [RHOBTB3], the protein stability index amounted to 2.27 ± 0.35 (treatment: DMSO) and 2.12 ± 0.33 (treatment: MLN4924 1 uM, 8 h).

Sequence MADQDPAGISPLQQMVASGTGAVV [SLC25A39] displayed a protein stability index (treatment: DMSO) of 4.52 ± 0.22 and a protein stability index (treatment: MLN4924 1 uM, 8 h) of 4.42 ± 0.13.

As to MAEAEGVPTTPGPASGSTFRGRRD [RETREG3], the protein stability index was determined as 5.12 ± 0.39 (treatment: DMSO) and 5.22 ± 0.14 (treatment: MLN4924 1 uM, 8 h).

With MAGGKAGKDSGKAKAKAVSRSQRA [H2AZ2], the protein stability index was 4.73 ± 0.24 (treatment: DMSO) and 5.03 ± 0.25 (treatment: MLN4924 1 uM, 8 h).

For MAGTNALLMLENFIDGKFLPCSSY [ALDH8A1], the protein stability index amounted to 2.19 ± 0.35 (treatment: DMSO) and 2.12 ± 0.26 (treatment: MLN4924 1 uM, 8 h).

In the case of MAHSKTRTNDGKITYPPGVKEISD [PDS5B], the protein stability index is, setting by setting: (treatment: DMSO) 4.59 ± 0.17; (treatment: MLN4924 1 uM, 8 h) 4.61 ± 0.21.

Regarding MALQLGRLSSGPCWLVARGGCGGP [CPOX], the protein stability index runs as follows: (treatment: DMSO) 2.36 ± 0.38; (treatment: MLN4924 1 uM, 8 h) 2.44 ± 0.38.

For the sequence MDGSGEQPRGGVSSRIEQGEWGGR, the protein stability index is 4.58 ± 0.43 (treatment: DMSO) and 4.58 ± 0.17 (treatment: MLN4924 1 uM, 8 h).

For MDRKTRFIIHGFIDKGDESWVTDM [PNLIPRP1], the protein stability index runs as follows: (treatment: DMSO) 2.48 ± 0.66; (treatment: MLN4924 1 uM, 8 h) 2.51 ± 0.19.

On to MDTQFTIRARELQNIYKCIMLKNI [IQUB], for which the protein stability index reads like this: (treatment: DMSO) 2.27 ± 0.24; (treatment: MLN4924 1 uM, 8 h) 2.37 ± 0.3.

For the sequence MEEVCGGEKPYLSPDILEEKHCEF [ATL3], the protein stability index runs as follows: (treatment: DMSO) 5.15 ± 0.29; (treatment: MLN4924 1 uM, 8 h) 5.01 ± 0.14.

Regarding MEEVISPRQVSYTPQHHEKQYAMQ [IQUB], the protein stability index was 4.38 ± 0.15 (treatment: DMSO) and 4.31 ± 0.29 (treatment: MLN4924 1 uM, 8 h).

Turning to MENNHTVAITILQDDHDHKVQELM [MTUS2], the protein stability index came out at 4.42 ± 0.26 (treatment: DMSO) and 4.34 ± 0.098 (treatment: MLN4924 1 uM, 8 h).

In the case of MEPATAPRPDMAPELTPEEEQATK [PTPN9], the protein stability index was determined as 5.71 ± 0.097 (treatment: DMSO) and 5.08 ± 0.48 (treatment: MLN4924 1 uM, 8 h).

MFSVLSYGRLVARAVLGGLSQTDP [PPTC7] showed a protein stability index (treatment: DMSO) of 2.01 ± 0.74 and a protein stability index (treatment: MLN4924 1 uM, 8 h) of 2.85 ± 1.3.

Regarding MHTNYLSACSFTNSDMQILTASGD [GNB5], the protein stability index by setting is: (treatment: DMSO) 2.99 ± 0.22; (treatment: MLN4924 1 uM, 8 h) 3.27 ± 0.26.

On to MLFFLPPGQHLSDYSQLNESTTKE [FBXO34], for which the protein stability index is, setting by setting: (treatment: DMSO) 2.6 ± 0.25; (treatment: MLN4924 1 uM, 8 h) 2.61 ± 0.24.

As for MLRQLLLAALCLAGPPAPARACQL [CCDC3], the protein stability index is, setting by setting: (treatment: DMSO) 3.47 ± 0.045; (treatment: MLN4924 1 uM, 8 h) 2.76 ± 1.1.

For MPDTFNSRSPSVEGSLWAVGTESQ [PXN], the protein stability index (treatment: DMSO) came out at 4.31 ± 0.16 and the protein stability index (treatment: MLN4924 1 uM, 8 h) came out at 4.38 ± 0.12.
